The text below walks through data of the supplement of paper PMC9112550, “Optimization of the antimicrobial peptide Bac7 by deep mutational scanning” (BMC Biology, 2022).

In the data set the test system is Escherichia coli TOP10. Put plainly: shrunken log2 fold change of peptide-encoding DNA abundance (4.5 h post-induction vs induction); higher = less antimicrobial activity (less host growth inhibition). Conditions: time post-induction: 4.5 h; library: site-saturation at positions 5, 18, 19, 20.
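Also: peptides expressed intracellularly from a pBAD plasmid library in pooled LB shake-flask culture, induced with 0.3% L-arabinose, DNA abundance read by NGS, three biological replicates, DESeq2 with apeglm shrinkage.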

As to RRIRSRPPRLPRPRPRPTKLPRP, the “shrunken log2 fold change” value was 0.0448.

Regarding RRIRKRPPRLPRPRPRPKDGPRP, the “shrunken log2 fold change” value came to 0.0893.

Turning to RRIRMRPPRLPRPRPRPWCYPRP, the “shrunken log2 fold change” value is -0.162.

RRIRQRPPRLPRPRPRPAYPPRP: the “shrunken log2 fold change” value is -0.167.

Turning to RRIRLRPPRLPRPRPRPYGEPRP, the “shrunken log2 fold change” value was -0.0013.

Turning to RRIRQRPPRLPRPRPRPNPRPRP, the “shrunken log2 fold change” value was 0.0565.

Consider RRIRTRPPRLPRPRPRPIIQPRP, for which the “shrunken log2 fold change” value was -0.487.

Turning to RRIRDRPPRLPRPRPRPMETPRP, the “shrunken log2 fold change” value is -0.00149.

For RRIRTRPPRLPRPRPRPLYSPRP, the “shrunken log2 fold change” value was -0.575.

Take RRIRWRPPRLPRPRPRPDFVPRP: the “shrunken log2 fold change” value came to 0.0377.

On to RRIRDRPPRLPRPRPRPYYSPRP, for which the “shrunken log2 fold change” value is 0.0804.

In the case of RRIRLRPPRLPRPRPRPTWCPRP, the “shrunken log2 fold change” value is 0.107.

With RRIRHRPPRLPRPRPRPIERPRP, the “shrunken log2 fold change” value stood at 0.00211.

In the case of RRIRARPPRLPRPRPRPPRQPRP, the “shrunken log2 fold change” value worked out at 0.769.

On to RRIRTRPPRLPRPRPRPYQHPRP, for which the “shrunken log2 fold change” value is -0.376.

For RRIRYRPPRLPRPRPRPGYAPRP, the “shrunken log2 fold change” value was -0.456.

Consider RRIRPRPPRLPRPRPRPTEYPRP, for which the “shrunken log2 fold change” value was -0.264.

For the sequence RRIRYRPPRLPRPRPRPQNHPRP, the “shrunken log2 fold change” value was -0.61.

For the sequence RRIRKRPPRLPRPRPRPFFSPRP, the “shrunken log2 fold change” value is -0.0214.

For the sequence RRIRQRPPRLPRPRPRPTPQPRP, the “shrunken log2 fold change” value turned out to be 0.89.

Take RRIRRRPPRLPRPRPRPMMCPRP: the “shrunken log2 fold change” value is 0.102.

As for RRIRERPPRLPRPRPRPHGAPRP, the “shrunken log2 fold change” value is 0.0169.

Turning to RRIRIRPPRLPRPRPRPKDSPRP, the “shrunken log2 fold change” value was -0.273.

As for RRIRFRPPRLPRPRPRPQNMPRP, the “shrunken log2 fold change” value was -0.797.

As to RRIRIRPPRLPRPRPRPIAPPRP, the “shrunken log2 fold change” value is -0.0686.

Regarding RRIRLRPPRLPRPRPRPANRPRP, the “shrunken log2 fold change” value is -0.133.

For RRIRQRPPRLPRPRPRPKCAPRP, the “shrunken log2 fold change” value came out at 0.16.

Consider RRIRNRPPRLPRPRPRPMCCPRP, for which the “shrunken log2 fold change” value is -0.406.

In the case of RRIRARPPRLPRPRPRPDRLPRP, the “shrunken log2 fold change” value was -0.0424.

For the sequence RRIRLRPPRLPRPRPRPRILPRP, the “shrunken log2 fold change” value was -0.211.

For the sequence RRIRHRPPRLPRPRPRPEKHPRP, the “shrunken log2 fold change” value came to 0.0511.

Take RRIRNRPPRLPRPRPRPSGDPRP: the “shrunken log2 fold change” value is -0.252.

For RRIRHRPPRLPRPRPRPKDYPRP, the “shrunken log2 fold change” value came to 0.0577.

As for RRIRDRPPRLPRPRPRPLQCPRP, the “shrunken log2 fold change” value was 0.0793.

As to RRIRMRPPRLPRPRPRPLMRPRP, the “shrunken log2 fold change” value turned out to be 1.16.

RRIRQRPPRLPRPRPRPNWTPRP: the “shrunken log2 fold change” value is -0.00963.

RRIRFRPPRLPRPRPRPVMCPRP: the “shrunken log2 fold change” value is -0.263.

In the case of RRIRFRPPRLPRPRPRPWSSPRP, the “shrunken log2 fold change” value was 0.0276.

As for RRIRHRPPRLPRPRPRPDQTPRP, the “shrunken log2 fold change” value is -0.0379.

Turning to RRIRQRPPRLPRPRPRPKFMPRP, the “shrunken log2 fold change” value is -0.18.

RRIRFRPPRLPRPRPRPKNQPRP: the “shrunken log2 fold change” value was -0.195.

For the sequence RRIRIRPPRLPRPRPRPCICPRP, the “shrunken log2 fold change” value is -0.148.

RRIRMRPPRLPRPRPRPCLWPRP: the “shrunken log2 fold change” value was found to be 0.0121.

On to RRIRNRPPRLPRPRPRPNAWPRP, for which the “shrunken log2 fold change” value was found to be 0.000665.

As for RRIRFRPPRLPRPRPRPPTMPRP, the “shrunken log2 fold change” value amounted to 0.166.

Regarding RRIRERPPRLPRPRPRPFHCPRP, the “shrunken log2 fold change” value is -0.175.

In the case of RRIRCRPPRLPRPRPRPRMVPRP, the “shrunken log2 fold change” value was determined as 0.205.

On to RRIRNRPPRLPRPRPRPPQQPRP, for which the “shrunken log2 fold change” value amounted to 0.294.

Regarding RRIRNRPPRLPRPRPRPAAEPRP, the “shrunken log2 fold change” value came to 0.232.

For RRIRARPPRLPRPRPRPFCTPRP, the “shrunken log2 fold change” value came to 0.0721.

Regarding RRIRIRPPRLPRPRPRPPEAPRP, the “shrunken log2 fold change” value amounted to 0.276.

For the sequence RRIRLRPPRLPRPRPRPHDWPRP, the “shrunken log2 fold change” value turned out to be 0.184.

RRIRNRPPRLPRPRPRPAIFPRP: the “shrunken log2 fold change” value was -0.424.

Take RRIRTRPPRLPRPRPRPLFYPRP: the “shrunken log2 fold change” value was -0.467.

Regarding RRIRDRPPRLPRPRPRPFWGPRP, the “shrunken log2 fold change” value worked out at 0.127.

Take RRIRYRPPRLPRPRPRPYKPPRP: the “shrunken log2 fold change” value was -0.0475.

On to RRIRQRPPRLPRPRPRPCFKPRP, for which the “shrunken log2 fold change” value is -0.407.

Regarding RRIRSRPPRLPRPRPRPIYVPRP, the “shrunken log2 fold change” value was -0.612.

For RRIRQRPPRLPRPRPRPRMHPRP, the “shrunken log2 fold change” value is -0.0115.

Consider RRIRSRPPRLPRPRPRPSIQPRP, for which the “shrunken log2 fold change” value was -0.497.

Turning to RRIRQRPPRLPRPRPRPHNEPRP, the “shrunken log2 fold change” value was -0.161.

As for RRIRRRPPRLPRPRPRPKSNPRP, the “shrunken log2 fold change” value came out at 0.0649.

RRIRQRPPRLPRPRPRPHAQPRP: the “shrunken log2 fold change” value turned out to be 0.384.

As to RRIRFRPPRLPRPRPRPHWMPRP, the “shrunken log2 fold change” value was -0.457.

RRIRLRPPRLPRPRPRPCCFPRP: the “shrunken log2 fold change” value was -0.0513.

RRIRVRPPRLPRPRPRPDRSPRP: the “shrunken log2 fold change” value is -0.039.

Regarding RRIRYRPPRLPRPRPRPSLNPRP, the “shrunken log2 fold change” value is -0.646.

Regarding RRIRSRPPRLPRPRPRPRFIPRP, the “shrunken log2 fold change” value was 0.00415.

In the case of RRIRHRPPRLPRPRPRPCWDPRP, the “shrunken log2 fold change” value stood at 0.0881.

Consider RRIRYRPPRLPRPRPRPSNFPRP, for which the “shrunken log2 fold change” value is -0.368.

For RRIRARPPRLPRPRPRPPKAPRP, the “shrunken log2 fold change” value amounted to 0.685.

On to RRIRPRPPRLPRPRPRPATWPRP, for which the “shrunken log2 fold change” value is 0.253.

As for RRIRERPPRLPRPRPRPRARPRP, the “shrunken log2 fold change” value turned out to be 0.233.

Turning to RRIRKRPPRLPRPRPRPTCKPRP, the “shrunken log2 fold change” value stood at 0.347.

With RRIRMRPPRLPRPRPRPEVSPRP, the “shrunken log2 fold change” value is 0.221.

Turning to RRIRFRPPRLPRPRPRPLEEPRP, the “shrunken log2 fold change” value was -0.0138.

As for RRIRLRPPRLPRPRPRPSCQPRP, the “shrunken log2 fold change” value was -0.256.

On to RRIRMRPPRLPRPRPRPLCVPRP, for which the “shrunken log2 fold change” value amounted to 0.361.

Consider RRIRDRPPRLPRPRPRPWMAPRP, for which the “shrunken log2 fold change” value is -0.499.

With RRIRHRPPRLPRPRPRPVIPPRP, the “shrunken log2 fold change” value was -0.0562.

Turning to RRIRSRPPRLPRPRPRPVFTPRP, the “shrunken log2 fold change” value came to 0.00672.

RRIRKRPPRLPRPRPRPVACPRP: the “shrunken log2 fold change” value was -0.0228.

Consider RRIRYRPPRLPRPRPRPYGMPRP, for which the “shrunken log2 fold change” value was -0.438.

For RRIRCRPPRLPRPRPRPHPWPRP, the “shrunken log2 fold change” value was -0.158.

RRIRTRPPRLPRPRPRPIPLPRP: the “shrunken log2 fold change” value is -0.683.

As for RRIRRRPPRLPRPRPRPQDKPRP, the “shrunken log2 fold change” value is -0.289.

Take RRIRNRPPRLPRPRPRPTEDPRP: the “shrunken log2 fold change” value is -0.187.

As for RRIRIRPPRLPRPRPRPFEQPRP, the “shrunken log2 fold change” value is -0.0348.

On to RRIRGRPPRLPRPRPRPNLMPRP, for which the “shrunken log2 fold change” value was 0.144.

In the case of RRIRDRPPRLPRPRPRPNYCPRP, the “shrunken log2 fold change” value was determined as 0.0253.

For the sequence RRIRLRPPRLPRPRPRPCKSPRP, the “shrunken log2 fold change” value was -0.264.
